T1: CARD11, Q9BXL7
T1 sequence (Q9BXL7 662-765, limits assumed, looked up): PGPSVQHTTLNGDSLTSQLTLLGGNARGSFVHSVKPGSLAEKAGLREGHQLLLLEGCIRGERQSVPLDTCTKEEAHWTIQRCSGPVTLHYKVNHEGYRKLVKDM

T2: PDZD7_3, Q9H5P4
T2 sequence (Q9H5P4 857-944, limits assumed, looked up): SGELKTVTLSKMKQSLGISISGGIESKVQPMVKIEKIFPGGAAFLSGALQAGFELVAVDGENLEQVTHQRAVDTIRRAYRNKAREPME

T3: DLG3_1, Q92796
T3 sequence (Q92796 125-227, limits assumed, looked up): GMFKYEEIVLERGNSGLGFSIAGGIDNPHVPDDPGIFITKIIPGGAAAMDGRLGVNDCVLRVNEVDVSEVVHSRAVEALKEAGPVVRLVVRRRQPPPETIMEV

T4: SHANK1, Q9Y566
T4 sequence (Q9Y566 658-767, limits assumed, looked up): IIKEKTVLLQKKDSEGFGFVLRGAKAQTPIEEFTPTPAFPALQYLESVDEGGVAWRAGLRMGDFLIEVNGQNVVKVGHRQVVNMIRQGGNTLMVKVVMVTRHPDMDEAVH

T5: SNTB1, Q13884
T5 sequence (Q13884 107-205, limits assumed, looked up): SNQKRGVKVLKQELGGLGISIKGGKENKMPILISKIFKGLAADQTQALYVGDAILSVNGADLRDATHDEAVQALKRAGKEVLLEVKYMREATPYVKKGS

T6: SYNJ2BP, P57105
T6 sequence (P57105 8-110, limits assumed, looked up): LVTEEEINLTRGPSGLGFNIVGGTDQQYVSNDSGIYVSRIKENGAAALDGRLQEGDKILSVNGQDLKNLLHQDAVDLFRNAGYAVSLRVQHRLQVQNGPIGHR

T7: APBA2_2, Q99767
T7 sequence (Q99767 654-744, limits assumed, looked up): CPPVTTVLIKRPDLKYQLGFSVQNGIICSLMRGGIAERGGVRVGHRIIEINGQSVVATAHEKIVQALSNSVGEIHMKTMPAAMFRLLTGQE

T8: SNTA1, Q13424
T8 sequence (Q13424 82-180, limits assumed, looked up): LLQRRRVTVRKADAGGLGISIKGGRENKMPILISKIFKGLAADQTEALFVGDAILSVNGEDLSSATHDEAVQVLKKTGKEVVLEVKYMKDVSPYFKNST

T9: DVL3, Q92997
T9 sequence (Q92997 244-331, limits assumed, looked up): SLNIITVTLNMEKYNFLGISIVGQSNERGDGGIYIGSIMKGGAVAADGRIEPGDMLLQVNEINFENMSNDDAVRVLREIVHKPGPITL

T10: SIPA1L2, Q9P2F8
T10 sequence (Q9P2F8 945-1036, limits assumed, looked up): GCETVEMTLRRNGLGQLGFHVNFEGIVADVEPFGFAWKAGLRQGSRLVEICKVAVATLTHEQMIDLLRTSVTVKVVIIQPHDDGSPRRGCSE

T11: TJP3_3, O95049
T11 sequence (O95049 375-456, limits assumed, looked up): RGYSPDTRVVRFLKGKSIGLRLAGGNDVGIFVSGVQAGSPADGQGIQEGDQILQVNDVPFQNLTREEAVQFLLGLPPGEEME

T12: GRIP1_5, Q9Y3R0
T12 sequence (Q9Y3R0 568-668, limits assumed, looked up): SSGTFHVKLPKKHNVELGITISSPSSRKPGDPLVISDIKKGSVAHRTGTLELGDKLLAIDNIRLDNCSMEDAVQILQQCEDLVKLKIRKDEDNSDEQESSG

T13: APBA3_1, O96018
T13 sequence (O96018 389-490, limits assumed, looked up): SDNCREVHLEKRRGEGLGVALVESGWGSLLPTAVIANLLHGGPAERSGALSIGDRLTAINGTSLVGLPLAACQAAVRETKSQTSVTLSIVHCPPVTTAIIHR


Target: T1, CARD11, Q9BXL7
Experiment: holdup assay
Design: key: below the threshold = too weak to quantify, mostly under pKd 3.1 to 4
Details: plain residues with an end cap or a label only (N-terminal biotin on a linker: ado-ado)

pKd	Binder
below the threshold	LKVPPEERLI [CRB2, Q5IJ48]
below the threshold	ETQVTAETVI [TMEM225B, P0DP42]

Target: T2, PDZD7_3, Q9H5P4
Experiment: holdup assay
Design: key: below the threshold = too weak to quantify, mostly under pKd 3.1 to 4
Details: plain residues with an end cap or a label only (N-terminal biotin on a linker: ado-ado)

pKd	Binder
below the threshold	LKVPPEERLI [CRB2, Q5IJ48]
5.23	ETQVTAETVI [TMEM225B, P0DP42]

Target: T3, DLG3_1, Q92796
Experiment: holdup assay
Design: key: below the threshold = too weak to quantify, mostly under pKd 3.1 to 4
Details: plain residues with an end cap or a label only (N-terminal biotin on a linker: ado-ado)

pKd	Binder
below the threshold	LKVPPEERLI [CRB2, Q5IJ48]
below the threshold	ETQVTAETVI [TMEM225B, P0DP42]

Target: T4, SHANK1, Q9Y566
Experiment: holdup assay
Design: key: below the threshold = too weak to quantify, mostly under pKd 3.1 to 4
Details: plain residues with an end cap or a label only (N-terminal biotin on a linker: ado-ado)

pKd	Binder
below the threshold	LKVPPEERLI [CRB2, Q5IJ48]
below the threshold	ETQVTAETVI [TMEM225B, P0DP42]

Target: T5, SNTB1, Q13884
Experiment: holdup assay
Design: key: below the threshold = too weak to quantify, mostly under pKd 3.1 to 4
Details: plain residues with an end cap or a label only (N-terminal biotin on a linker: ado-ado)

pKd	Binder
below the threshold	LKVPPEERLI [CRB2, Q5IJ48]
4.8	ETQVTAETVI [TMEM225B, P0DP42]

Target: T6, SYNJ2BP, P57105
Experiment: holdup assay
Design: key: below the threshold = too weak to quantify, mostly under pKd 3.1 to 4
Details: plain residues with an end cap or a label only (N-terminal biotin on a linker: ado-ado)

pKd	Binder
below the threshold	LKVPPEERLI [CRB2, Q5IJ48]
3.92	ETQVTAETVI [TMEM225B, P0DP42]

Target: MAGI2_6, Q86UL8
Experiment: holdup assay
Design: key: below the threshold = too weak to quantify, mostly under pKd 3.1 to 4
Details: plain residues with an end cap or a label only (N-terminal biotin on a linker: ado-ado)

Chain of MAGI2_6, Q86UL8 (Q86UL8 1141-1229): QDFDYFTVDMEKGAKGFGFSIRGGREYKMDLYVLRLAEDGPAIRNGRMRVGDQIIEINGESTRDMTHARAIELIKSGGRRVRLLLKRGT

pKd	Binder
below the threshold	LKVPPEERLI [CRB2, Q5IJ48]
below the threshold	ETQVTAETVI [TMEM225B, P0DP42]

Target: T7, APBA2_2, Q99767
Experiment: holdup assay
Design: key: below the threshold = too weak to quantify, mostly under pKd 3.1 to 4
Details: plain residues with an end cap or a label only (N-terminal biotin on a linker: ado-ado)

pKd	Binder
below the threshold	LKVPPEERLI [CRB2, Q5IJ48]
below the threshold	ETQVTAETVI [TMEM225B, P0DP42]

Target: MAGI2_5, Q86UL8
Experiment: holdup assay
Design: key: below the threshold = too weak to quantify, mostly under pKd 3.1 to 4
Details: plain residues with an end cap or a label only (N-terminal biotin on a linker: ado-ado)

Chain of MAGI2_5, Q86UL8 (Q86UL8 915-1017): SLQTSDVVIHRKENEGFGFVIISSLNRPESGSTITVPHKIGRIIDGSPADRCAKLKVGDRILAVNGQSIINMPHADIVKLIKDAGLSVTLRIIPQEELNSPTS

pKd	Binder
below the threshold	LKVPPEERLI [CRB2, Q5IJ48]
below the threshold	ETQVTAETVI [TMEM225B, P0DP42]

Target: T8, SNTA1, Q13424
Experiment: holdup assay
Design: key: below the threshold = too weak to quantify, mostly under pKd 3.1 to 4
Details: plain residues with an end cap or a label only (N-terminal biotin on a linker: ado-ado)

pKd	Binder
below the threshold	LKVPPEERLI [CRB2, Q5IJ48]
4.68	ETQVTAETVI [TMEM225B, P0DP42]

Target: GRID2IP_2, A4D2P6
Experiment: holdup assay
Design: key: below the threshold = too weak to quantify, mostly under pKd 3.1 to 4
Details: plain residues with an end cap or a label only (N-terminal biotin on a linker: ado-ado)

Chain of GRID2IP_2, A4D2P6 (A4D2P6 272-370): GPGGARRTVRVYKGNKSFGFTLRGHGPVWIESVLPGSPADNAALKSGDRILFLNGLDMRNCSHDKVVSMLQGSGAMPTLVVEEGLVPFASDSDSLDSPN

pKd	Binder
below the threshold	LKVPPEERLI [CRB2, Q5IJ48]
below the threshold	ETQVTAETVI [TMEM225B, P0DP42]

Target: PDLIM1, O00151
Experiment: holdup assay
Design: key: below the threshold = too weak to quantify, mostly under pKd 3.1 to 4
Details: plain residues with an end cap or a label only (N-terminal biotin on a linker: ado-ado)

Chain of PDLIM1, O00151 (O00151 1-87): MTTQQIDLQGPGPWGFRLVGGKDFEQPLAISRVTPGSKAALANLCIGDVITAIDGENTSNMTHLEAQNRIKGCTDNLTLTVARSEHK

pKd	Binder
below the threshold	LKVPPEERLI [CRB2, Q5IJ48]
below the threshold	ETQVTAETVI [TMEM225B, P0DP42]

Target: Inadl_4, Q8NI35
Experiment: holdup assay
Design: key: below the threshold = too weak to quantify, mostly under pKd 3.1 to 4
Details: plain residues with an end cap or a label only (N-terminal biotin on a linker: ado-ado)

Chain of Inadl_4, Q8NI35 (Q8NI35 547-651): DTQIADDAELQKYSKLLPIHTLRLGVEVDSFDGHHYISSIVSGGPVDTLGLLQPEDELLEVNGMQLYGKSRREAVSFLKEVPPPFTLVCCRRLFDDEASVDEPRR

pKd	Binder
below the threshold	LKVPPEERLI [CRB2, Q5IJ48]
below the threshold	ETQVTAETVI [TMEM225B, P0DP42]

Target: DLG5_1, Q8TDM6
Experiment: holdup assay
Design: key: below the threshold = too weak to quantify, mostly under pKd 3.1 to 4
Details: plain residues with an end cap or a label only (N-terminal biotin on a linker: ado-ado)

Chain of DLG5_1, Q8TDM6 (Q8TDM6 617-713): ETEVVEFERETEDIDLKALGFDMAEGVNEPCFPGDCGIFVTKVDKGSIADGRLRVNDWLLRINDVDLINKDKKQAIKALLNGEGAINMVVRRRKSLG

pKd	Binder
below the threshold	LKVPPEERLI [CRB2, Q5IJ48]
below the threshold	ETQVTAETVI [TMEM225B, P0DP42]

Target: T9, DVL3, Q92997
Experiment: holdup assay
Design: key: below the threshold = too weak to quantify, mostly under pKd 3.1 to 4
Details: plain residues with an end cap or a label only (N-terminal biotin on a linker: ado-ado)

pKd	Binder
below the threshold	LKVPPEERLI [CRB2, Q5IJ48]
below the threshold	ETQVTAETVI [TMEM225B, P0DP42]

Target: T10, SIPA1L2, Q9P2F8
Experiment: holdup assay
Design: key: below the threshold = too weak to quantify, mostly under pKd 3.1 to 4
Details: plain residues with an end cap or a label only (N-terminal biotin on a linker: ado-ado)

pKd	Binder
below the threshold	LKVPPEERLI [CRB2, Q5IJ48]
below the threshold	ETQVTAETVI [TMEM225B, P0DP42]

Target: T11, TJP3_3, O95049
Experiment: holdup assay
Design: key: below the threshold = too weak to quantify, mostly under pKd 3.1 to 4
Details: plain residues with an end cap or a label only (N-terminal biotin on a linker: ado-ado)

pKd	Binder
below the threshold	LKVPPEERLI [CRB2, Q5IJ48]
below the threshold	ETQVTAETVI [TMEM225B, P0DP42]

Target: SCRIB_2, Q14160
Experiment: holdup assay
Design: key: below the threshold = too weak to quantify, mostly under pKd 3.1 to 4
Details: plain residues with an end cap or a label only (N-terminal biotin on a linker: ado-ado)

Chain of SCRIB_2, Q14160 (Q14160 857-960): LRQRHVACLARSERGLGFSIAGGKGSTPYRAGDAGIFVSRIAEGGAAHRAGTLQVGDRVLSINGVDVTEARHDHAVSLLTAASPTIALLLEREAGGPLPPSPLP

pKd	Binder
below the threshold	LKVPPEERLI [CRB2, Q5IJ48]
below the threshold	ETQVTAETVI [TMEM225B, P0DP42]

Target: HTRA1, Q92743
Experiment: holdup assay
Design: key: below the threshold = too weak to quantify, mostly under pKd 3.1 to 4
Details: plain residues with an end cap or a label only (N-terminal biotin on a linker: ado-ado)

Chain of HTRA1, Q92743 (Q92743 360-477): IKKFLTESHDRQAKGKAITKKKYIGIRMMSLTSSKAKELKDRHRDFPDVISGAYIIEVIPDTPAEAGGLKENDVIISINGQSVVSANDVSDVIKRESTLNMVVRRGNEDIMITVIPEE

pKd	Binder
4.18	LKVPPEERLI [CRB2, Q5IJ48]
4.31	ETQVTAETVI [TMEM225B, P0DP42]

Target: T12, GRIP1_5, Q9Y3R0
Experiment: holdup assay
Design: key: below the threshold = too weak to quantify, mostly under pKd 3.1 to 4
Details: plain residues with an end cap or a label only (N-terminal biotin on a linker: ado-ado)

pKd	Binder
below the threshold	LKVPPEERLI [CRB2, Q5IJ48]
below the threshold	ETQVTAETVI [TMEM225B, P0DP42]

Target: MAST1, Q9Y2H9
Experiment: holdup assay
Design: key: below the threshold = too weak to quantify, mostly under pKd 3.1 to 4
Details: plain residues with an end cap or a label only (N-terminal biotin on a linker: ado-ado)

Chain of MAST1, Q9Y2H9 (Q9Y2H9 962-1065): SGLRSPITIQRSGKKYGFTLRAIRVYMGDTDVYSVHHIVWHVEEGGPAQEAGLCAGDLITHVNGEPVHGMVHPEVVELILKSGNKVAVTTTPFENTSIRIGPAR

pKd	Binder
3.58	LKVPPEERLI [CRB2, Q5IJ48]
4.31	ETQVTAETVI [TMEM225B, P0DP42]

Target: Inadl_6, Q8NI35
Experiment: holdup assay
Design: key: below the threshold = too weak to quantify, mostly under pKd 3.1 to 4
Details: plain residues with an end cap or a label only (N-terminal biotin on a linker: ado-ado)

Chain of Inadl_6, Q8NI35 (Q8NI35 1058-1167): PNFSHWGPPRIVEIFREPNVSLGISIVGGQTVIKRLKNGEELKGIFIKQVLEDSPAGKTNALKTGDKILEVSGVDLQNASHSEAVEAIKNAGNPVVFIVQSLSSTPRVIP

pKd	Binder
below the threshold	LKVPPEERLI [CRB2, Q5IJ48]
below the threshold	ETQVTAETVI [TMEM225B, P0DP42]

Target: T13, APBA3_1, O96018
Experiment: holdup assay
Design: key: below the threshold = too weak to quantify, mostly under pKd 3.1 to 4
Details: plain residues with an end cap or a label only (N-terminal biotin on a linker: ado-ado)

pKd	Binder
below the threshold	LKVPPEERLI [CRB2, Q5IJ48]
below the threshold	ETQVTAETVI [TMEM225B, P0DP42]

Target: DLG1_1, Q12959
Experiment: holdup assay
Design: key: below the threshold = too weak to quantify, mostly under pKd 3.1 to 4
Details: plain residues with an end cap or a label only (N-terminal biotin on a linker: ado-ado)

pKd	Binder
below the threshold	LKVPPEERLI [CRB2, Q5IJ48]
3.91	ETQVTAETVI [TMEM225B, P0DP42]

Target: GRIP2_4, Q9C0E4
Experiment: holdup assay
Design: key: below the threshold = too weak to quantify, mostly under pKd 3.1 to 4
Details: plain residues with an end cap or a label only (N-terminal biotin on a linker: ado-ado)

Chain of GRIP2_4, Q9C0E4 (Q9C0E4 446-548): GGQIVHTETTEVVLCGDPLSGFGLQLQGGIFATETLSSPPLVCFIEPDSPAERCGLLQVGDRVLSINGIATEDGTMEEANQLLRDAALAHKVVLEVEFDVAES

pKd	Binder
below the threshold	LKVPPEERLI [CRB2, Q5IJ48]
below the threshold	ETQVTAETVI [TMEM225B, P0DP42]

From article PMC9482650, “Quantitative fragmentomics allow affinity mapping of interactomes” (Nature Communications, 2022)
